Data from patent US20160075789A1.
One block for each binder: values may come before it.

How the values were obtained:
[1] = molecular target: Fc-EDA1 (human); test: sandwich ELISA, EctoD2 at capture, biotinylated EctoD3 at revelation (FIG. 24)
[2] = molecular target: Fc-EDA1 (human); test: sandwich ELISA of Fc-EDA1 pre-incubated in buffer or mouse serum (FIG. 26)
[3] = molecular target: Fc-EDA1 (human); test: cell-based or functional assay

Fc-EDA1 (human), sequence (Q92838 249-385): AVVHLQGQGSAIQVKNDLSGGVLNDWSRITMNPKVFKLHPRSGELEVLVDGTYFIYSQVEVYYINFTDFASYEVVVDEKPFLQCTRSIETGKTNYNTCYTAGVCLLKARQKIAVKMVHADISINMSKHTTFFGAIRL

concentration of Fc-EDA1 readily detected [1]: < 1 ng/mL | most sensitive detection of Fc-EDA1 [2]: < 1 ng/mL
B1: mAbEDA1-EctoD3 (antibody, mouse IgG1, V domains shown)
VH: QVQLHQSGAELARPGASVKLSCKASGYTFTSYGISWVKQRTGQGLEWIGEVYPRSGDTYYHDYFEGKATLTADKSSSTAYMELRSLTSEDSAVYFCARGDYADVWGTGTTVTVSS
VL: DIVLTQSPASLAVSLGQRATISCRASKSVSTFGNSYMLWYQQKPGQPPKLLIYLASNLESGVPARFSGSGSGTDFTLNIHPVEEEDAATYYCQNSRELPYTFGGGTKLEIKR

concentration of Fc-EDA1 readily detected [1]: < 1 ng/mL | most sensitive detection of Fc-EDA1 [2]: < 1 ng/mL
B2: mAbEDA1-EctoD2 (antibody, mouse IgG1, V domains shown)
VH: EVMLEESGGGLVKSGGSLKLSCAASGFTFSTYAMSWVRQTPGKRLEWVAAISDGGDNTYYLDSVKGRFTISRDNAKNTLYLQMSSLRSEDSALYYCARQYNDYEAMDYWGQGTSLTVSS
VL: DIVLTQSPTSLAVSLGQRATISCRASESVDSYGSSFMHWYQQKPGQPPKLLFYRASNLESGIPARFSGSGSRTDFTLTINPVEADDVATYYCQQSNEDPFTFGSGTKLEIKR
cytotoxicity assay using EDAR-Fas Jurkat cells (PMS/MTS viability): antibody concentration at which 40 ng/mL of Fc-EDA1 is completely inhibited [3]: 125 ng/mL | cytotoxicity assay using EDAR-Fas Jurkat cells: stoichiometry of inhibition (antibodies per Fc-EDA1) [3]: 5
